In the nanobody polyreactivity screen of Harvey et al. (2022):

Experiment: yeast display, Sf9 membrane polyspecificity reagent, FACS + sequencing; frameworks hold sequencing errors
Procedure, shortened: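 Polyreactivity labels are assigned by the sorting gate from which each nanobody was recovered. The gates were low and high (top ~1%), set on anti-HA fluorescence for expression and streptavidin fluorescence for reagent binding. Before sorting, galactose-induced (36–48 hours) yeast display cells were stained for 1 hour at 4 °C with 10% biotinylated, detergent-solubilized Sf9 membrane reagent.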

Sequence | polyreactivity (PSR sort gate)
QVQLVESGGGLVQAGGSLRLSCAASGSTFYPYGMGWYRQAPGNERELVAAITDSGGSTYYADSVKGRFTISRDNAKNTVYLQMNSLKPEDTAVYYCAKTYWYPWRASLWHEYDYWGQGTQVTVSS | low polyreactivity
QVQLVESGGGLVQAGGSLRLSCAASGRTFWANAMGWYRQAPGKERELVAAITIGGRTYYADSVKGRFTISRDNAKNTVYIQMNSLKPEDTAVYYCNAGSRRPFPAESGYWGQGTQVTVSS | low polyreactivity
QVQLVESGGGLVQAGGSLRLRCASSGRIFFGYAMGWYRQAPGKERELVASISRGGSTNYADSVKGRFTISRDNAKNTVYLQMHSLKPEDTAVYYCAASRYLQRYGMYYWGQGTQVTVSS | high polyreactivity
QVQLVESWGGLVQAGGSLRISCAASGRTFGSYVMGWYRQAPGKERELVAAISSRGTRTYYADSVKGRFTISRDNAKNTVYLQMNSLKPEDTAVYYCNAKYGQYPPRYEYWGQGTQVTVSS | high polyreactivity
QVQLVESRGGLVQAGGSLRLSCAASGRIFETNTMGWYRQAPGKEREFVAAITFSGGRTNYADSVKGRFTISRDNAKNTDYLPMNSLKPEDTAVYYCAAAGRRRKYYYWGQGTQVTVSS | high polyreactivity
QVQLVESGGGLVQAGGSLRLSCAASGSIFGYYAMGWYRQAPGKERELVATITTRGARTYYADSVKGRFTISRDNAKNTVYLQMNSLKPEDTAVYYCAAYGYYNFGYYYWGQGTQVTVSS | high polyreactivity
QVQLVESGGGLVQAGVSLRLSCAASGRIFGTNAMGWYRQAPGKERELVADITSGGSTNYADSVKGRFTISRDTAKNTVYLQMNSLKPEDTALYYCAADVIGDMRWYRDEYRGQGTQVTVSS | low polyreactivity
QVQLVESGGGLVQAGGSLRLSCAASGIIFDSYALGWYRQAPGKERELVAAITSRGGRTYYAVSVKGRFTISRDNAKNTVYLQMNSLKPEDTAVYYCAARAKYDRRTDGTSGYDYWGQGTQVTVSS | low polyreactivity
QVQLVESGGGLVQAGGSLRLSCAASGRIFSRNAMGWYRQAPGKERELVAAITWRGGSTYYADSVKGRFTISRDNAKNTVYLQMNSLKPEDTAVYYCNRDYRQYGYAYSGRYYWGQGTQVTVSS | high polyreactivity
QVQLVESGGGLVQAGASLRLSCAASGRTFRYYAMGWYRQEPGKERELVAAITSGGSTYYADSVKGRFTISRDNAKKTVYLQMNSLKPEVTAVYYCAAVPAGLWGTYPQFRYGYWGQGTQVTVSS | high polyreactivity
QVQLVESGGGLVQAGGSLRLSSAASGRIFKDNAMGWYRQAPGKERELVAAISSGASTSYADSVKGRFTISRDNAKNTVYLQMNSLKPEDTAVYYCNRGGYLYYPGWLFDYWGQGTQVTVSS | low polyreactivity
QVQLVESGGGLVQAGGSLRLSCAASGRIFGGYAMGWYRPAPGKERELVAAISSRGGSTYYADSVKGRFTISRDNAKNTVYLQMNSLKPEDTAVYYCAADGRVKGWGQGTQVTVSS | high polyreactivity
QVQLVESGGGLVQAGGSLRLSCAASGRIFPQNAMGWYRQAPGKERELVAAITSDGAITYYADSVKGRFTISRDNAKNTVYLQMNSLKPEDTAVYYCATQGRYYDYDYWGQGTQVTVSS | low polyreactivity
QVQLVESGGGLVQAGGSLRLSCAASGNTFPLNAMGWYRQAPGKERDLVAGISRTGGSTYYADSVKGRFTISRDNAKNTVYLQMNSLKPEDTAVYYCAAQSRYWVVRMDYWGQGTQVTVSS | high polyreactivity
QVQLVESGGGLVQAGGSLRLSCAASGSIFYRYAMGWYRQAPGKVRELVAAISSGSSTHYADSVKGRFTISRDNAKNTVYLQMNSLKPEDTAVYYCAARYRAYTSTRRFDYWGQGTQVTVSS | high polyreactivity
QVQLVESGGGLVQAGGSLRLSCAASGRIFHQYAMGWYRQAPGKERELVAAITGGGSTYYADSVKGRFTISRDNAKNTVSLQMNSLKPEDTAVYYCAAPPFGYYEVGYDSWGQGTQVTVSS | low polyreactivity
QVQLVESGGGLVQAGGSLRLSCAASGSIFKYNDMGWYRQAPGKERELVAAIRLGGGSTSYADSVKGRFTISRDNAKNTVYLQMNSLKPEDTAVYYCAAEINVGWLGSYDYWGQGTQVTVSS | low polyreactivity
QVQLVESGGGLVQAGGRLRLSCAASGFILATNAMGWYRQAPGKERELVAAISYSGGSTNYADSVKGRFTISRDNAKNTVYLQMNSLKPEDTAVYYCNAGGTVIWAWYGPVYSWGQGTQVTVSS | low polyreactivity
QGQLVESGRGLVQAGGSLSLSCAASGSTFFIYAMGWYRQAPGKERELVAAINRSGGRTYYADSVKGRFTISRYTAQNTVYLQMNSLKPEDTAVYYCAAYLGPYVRFYYWGQGTQGTVSS | high polyreactivity
QVQLVESGGGLVQAGGSLSLSSAASGRTFGIYAMGWYRQEPGKERELVAAITWSGDSTYYADSVKGRFTISRDNAKNTVYLQLNSLKPEDTAVDYCAADYVGVTYVRYDYWGQGTQVTVSS | low polyreactivity
QVQLVESGGGLVQAGGSLRLSCAASGSIFKRNAMGWYRQAPGKERELVASISSGGSTHYADSVKGRFTISRDNAKNTVYLQMNSLKPEDTAVYYCAADSSWYVLYGSYYRSGLDYWGQGTQVTVSS | low polyreactivity
QVQLVESGGGLVQAGGSLRLSCAASGSIFEPYAMGWYRTAPGKERELVAAISSGGSTNYADSVKGRFTISRDNAKNTVYLQMNSLKPEVTAVYYCAAAYYTVGWLYYDYWYPFAYYYWGQGTQVTVSS | low polyreactivity
QVQLVESGGGLDQAGGSLRLSCAASGSTFSQYVMGWYRQAPGKERELVAANSSGGSTYYADSVKGRFTISRDNAKNTVYLQMNSLKPEDTAVYYCAAKYDGSYVGLYWYSMNYWGQGTQVTVSS | low polyreactivity
QVQLVESGGGLVQAGGSLRLSCAASGFIFRQDAMGWYRQAPGKERELVAAISWRGGSTYYADSVKGRFTISRDNAKNTEYLQMNSLKPEDTAVYYCATRQTKYSNYRGDYWGQGTQVTVST | high polyreactivity
QVQLVESGGGLVQAGGSLRLSCAASGRIFSVYAMGWYRQAPGKERELVAAITRVGSTNYADSVKGRFTISRDNAKNTVFLLMNSLKQEDTAVYYCARTYSTRGYYYWGQGTQVTVSS | high polyreactivity
QVQLVESGGGLVQAGGSLRLSCAASGSIFGINAMGWYRPAPGKERQLVAAISGSTSRSYYADSVKGRFTISRDNAKNTVYLQMNSLKPEDTAVYYCAVVGLRSVTRRSYYWGQGTQVTVSS | high polyreactivity
QVQLVVSGGRLVQGAGSHRLSSAASGSIFPKYAMGWYRQAPGKERDLVATISYRGGRTYYADSVKGRFTISRDNAKNTVNLQMNCLKPEDTAVYYCNAHSQAKLDYWGQGSQVTVSS | low polyreactivity
QVQLVESGGGLVQAGGSLRLSCAASGFTFRKYAMGWYRPAPGKERELVAGITSGGSTNYADSVKGRFTISRDNAKNTVYLQMNSLKPEDTSVYYCNAARYYAYIGDYWGQGTQVTVSS | high polyreactivity
QVKLVESGGGLVQAGGSLRLSCAASGRTFYSYAMGWYRQAPGKERELVAAISAGGSTYYADSVKGRFTISRDNAKNTVYLQMTSLKPEDTAVYYCAAPVRYTYWRYPYDYWGQGTQVTVSS | high polyreactivity
QVQLVESGGGLVQAGGSLRLSCAASGIIFAANTMGWYRQAPGKDREFVAAISKRGGTTYYADSVKGRFTISRDNAKNTVYLQMNSLKPEDSAVYYCNRRNGWSRGEYWGQGTQVTVSS | high polyreactivity
